Source: patent publication US20220289848A1 (published 2022)
Where a chain is given by its changes, count along the chain named.

B1: PDL1a-E-HN (bispecific antibody)
heavy: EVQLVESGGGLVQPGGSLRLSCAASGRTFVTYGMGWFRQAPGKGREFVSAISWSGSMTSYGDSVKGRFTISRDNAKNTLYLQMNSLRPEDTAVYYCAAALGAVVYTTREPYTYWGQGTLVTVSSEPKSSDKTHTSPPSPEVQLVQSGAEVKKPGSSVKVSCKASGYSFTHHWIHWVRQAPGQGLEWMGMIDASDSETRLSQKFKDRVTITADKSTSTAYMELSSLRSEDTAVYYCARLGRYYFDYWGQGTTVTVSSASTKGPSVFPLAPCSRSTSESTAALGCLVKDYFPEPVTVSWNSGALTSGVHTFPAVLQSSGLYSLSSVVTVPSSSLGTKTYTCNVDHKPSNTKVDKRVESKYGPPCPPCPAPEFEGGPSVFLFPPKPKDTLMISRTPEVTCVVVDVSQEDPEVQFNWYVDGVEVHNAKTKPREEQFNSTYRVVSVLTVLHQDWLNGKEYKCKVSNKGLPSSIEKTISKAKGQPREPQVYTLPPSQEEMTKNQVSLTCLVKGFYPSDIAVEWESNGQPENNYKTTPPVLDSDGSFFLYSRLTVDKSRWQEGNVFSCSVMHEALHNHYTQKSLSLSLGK
light: EIVLTQSPATLSLSPGERATLSCRASENVGTYISWYQQKPGQAPRLLIYGASNRYTGIPARFSGSGSGTDFTLTISSLEPEDFAVYYCGESYGHLYTFGGGTKVEIKRTVAAPSVFIFPPSDEQLKSGTASVVCLLNNFYPREAKVQWKVDNALQSGNSQESVTEQDSKDSTYSLSSTLTLSKADYEKHKVYACEVTHQGLSSPVTKSFNRGEC
B2: PDL1c-E-HN (bispecific antibody)
heavy: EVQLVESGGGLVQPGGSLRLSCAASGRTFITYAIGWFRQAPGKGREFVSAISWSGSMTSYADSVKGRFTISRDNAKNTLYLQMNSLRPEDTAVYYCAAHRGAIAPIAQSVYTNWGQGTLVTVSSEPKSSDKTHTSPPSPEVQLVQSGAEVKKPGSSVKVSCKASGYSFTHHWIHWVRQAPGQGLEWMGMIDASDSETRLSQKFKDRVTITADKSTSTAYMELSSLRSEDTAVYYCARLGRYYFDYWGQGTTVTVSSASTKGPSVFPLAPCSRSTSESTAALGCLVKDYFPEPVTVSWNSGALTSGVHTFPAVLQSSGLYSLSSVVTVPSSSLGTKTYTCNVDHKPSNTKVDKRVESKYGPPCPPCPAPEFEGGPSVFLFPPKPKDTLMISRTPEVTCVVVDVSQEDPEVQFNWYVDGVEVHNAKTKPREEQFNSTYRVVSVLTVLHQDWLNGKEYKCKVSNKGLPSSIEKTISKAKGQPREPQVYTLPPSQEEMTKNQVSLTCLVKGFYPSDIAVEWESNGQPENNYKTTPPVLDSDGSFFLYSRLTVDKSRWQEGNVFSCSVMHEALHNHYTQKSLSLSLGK
light: B1 light
B3: PDL1a-G15-LN (bispecific antibody)
heavy: not shown
light: EVQLVESGGGLVQPGGSLRLSCAASGRTFVTYGMGWFRQAPGKGREFVSAISWSGSMTSYGDSVKGRFTISRDNAKNTLYLQMNSLRPEDTAVYYCAAALGAVVYTTREPYTYWGQGTLVTVSSGGGGSGGGGSGGGGSEIVLTQSPATLSLSPGERATLSCRASENVGTYISWYQQKPGQAPRLLIYGASNRYTGIPARFSGSGSGTDFTLTISSLEPEDFAVYYCGESYGHLYTFGGGTKVEIKRTVAAPSVFIFPPSDEQLKSGTASVVCLLNNFYPREAKVQWKVDNALQSGNSQESVTEQDSKDSTYSLSSTLTLSKADYEKHKVYACEVTHQGLSSPVTKSFNRGEC
B4: PDL1c-E-LN (bispecific antibody)
heavy: not shown
light: EVQLVESGGGLVQPGGSLRLSCAASGRTFITYAIGWFRQAPGKGREFVSAISWSGSMTSYADSVKGRFTISRDNAKNTLYLQMNSLRPEDTAVYYCAAHRGAIAPIAQSVYTNWGQGTLVTVSSEPKSSDKTHTSPPSPEIVLTQSPATLSLSPGERATLSCRASENVGTYISWYQQKPGQAPRLLIYGASNRYTGIPARFSGSGSGTDFTLTISSLEPEDFAVYYCGESYGHLYTFGGGTKVEIKRTVAAPSVFIFPPSDEQLKSGTASVVCLLNNFYPREAKVQWKVDNALQSGNSQESVTEQDSKDSTYSLSSTLTLSKADYEKHKVYACEVTHQGLSSPVTKSFNRGEC
B5: PDL1a-E-LN (bispecific antibody)
heavy: not shown
light: EVQLVESGGGLVQPGGSLRLSCAASGRTFVTYGMGWFRQAPGKGREFVSAISWSGSMTSYGDSVKGRFTISRDNAKNTLYLQMNSLRPEDTAVYYCAAALGAVVYTTREPYTYWGQGTLVTVSSEPKSSDKTHTSPPSPEIVLTQSPATLSLSPGERATLSCRASENVGTYISWYQQKPGQAPRLLIYGASNRYTGIPARFSGSGSGTDFTLTISSLEPEDFAVYYCGESYGHLYTFGGGTKVEIKRTVAAPSVFIFPPSDEQLKSGTASVVCLLNNFYPREAKVQWKVDNALQSGNSQESVTEQDSKDSTYSLSSTLTLSKADYEKHKVYACEVTHQGLSSPVTKSFNRGEC
B6: PDL1b-E-LN (bispecific antibody)
heavy: not shown
light: B5 light with M57S
B7: anti-CD47 monoclonal antibody (mAb) (antibody, V domains shown)
VH: EVQLVQSGAEVKKPGSSVKVSCKASGYSFTHHWIHWVRQAPGQGLEWMGMIDASDSETRLSQKFKDRVTITADKSTSTAYMELSSLRSEDTAVYYCARLGRYYFDYWGQGTTVTVSS
VL: EIVLTQSPATLSLSPGERATLSCRASENVGTYISWYQQKPGQAPRLLIYGASNRYTGIPARFSGSGSGTDFTLTISSLEPEDFAVYYCGESYGHLYTFGGGTKVEIKR
B8: PDL1a-G15-HN (bispecific antibody)
heavy: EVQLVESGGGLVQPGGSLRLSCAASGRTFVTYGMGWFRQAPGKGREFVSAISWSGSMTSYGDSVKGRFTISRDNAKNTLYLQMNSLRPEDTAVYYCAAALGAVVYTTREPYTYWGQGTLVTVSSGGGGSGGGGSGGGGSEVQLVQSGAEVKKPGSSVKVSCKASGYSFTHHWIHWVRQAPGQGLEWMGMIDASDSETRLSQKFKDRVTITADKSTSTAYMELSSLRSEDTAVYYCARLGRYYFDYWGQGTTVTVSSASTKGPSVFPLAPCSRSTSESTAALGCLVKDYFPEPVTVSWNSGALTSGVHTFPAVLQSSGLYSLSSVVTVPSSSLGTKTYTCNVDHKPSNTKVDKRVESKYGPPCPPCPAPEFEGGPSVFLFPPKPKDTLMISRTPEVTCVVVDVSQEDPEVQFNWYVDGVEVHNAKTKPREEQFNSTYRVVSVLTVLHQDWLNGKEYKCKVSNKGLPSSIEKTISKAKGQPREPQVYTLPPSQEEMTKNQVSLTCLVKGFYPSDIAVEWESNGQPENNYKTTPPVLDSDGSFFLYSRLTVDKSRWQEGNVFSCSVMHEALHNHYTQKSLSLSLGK
light: B1 light
B9: PDL1a-G15-HC (bispecific antibody)
heavy: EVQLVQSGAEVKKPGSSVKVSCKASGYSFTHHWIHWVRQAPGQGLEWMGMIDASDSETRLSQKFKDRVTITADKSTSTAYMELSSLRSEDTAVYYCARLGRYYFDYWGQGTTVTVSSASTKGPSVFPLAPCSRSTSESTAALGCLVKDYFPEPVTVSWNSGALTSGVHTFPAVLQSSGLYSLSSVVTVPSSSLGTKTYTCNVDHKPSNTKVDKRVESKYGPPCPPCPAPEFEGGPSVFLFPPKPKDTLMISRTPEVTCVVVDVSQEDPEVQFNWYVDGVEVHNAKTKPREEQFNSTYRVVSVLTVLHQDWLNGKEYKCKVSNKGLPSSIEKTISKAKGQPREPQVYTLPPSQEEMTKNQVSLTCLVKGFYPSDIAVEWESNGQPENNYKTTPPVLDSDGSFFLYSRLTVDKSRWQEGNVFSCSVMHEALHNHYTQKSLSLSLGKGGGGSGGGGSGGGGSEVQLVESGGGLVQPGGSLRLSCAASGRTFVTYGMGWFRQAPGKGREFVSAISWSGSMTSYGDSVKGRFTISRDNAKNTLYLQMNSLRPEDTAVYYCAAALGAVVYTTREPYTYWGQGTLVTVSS
light: B1 light
B10: PDL1b-E-HN (bispecific antibody)
heavy: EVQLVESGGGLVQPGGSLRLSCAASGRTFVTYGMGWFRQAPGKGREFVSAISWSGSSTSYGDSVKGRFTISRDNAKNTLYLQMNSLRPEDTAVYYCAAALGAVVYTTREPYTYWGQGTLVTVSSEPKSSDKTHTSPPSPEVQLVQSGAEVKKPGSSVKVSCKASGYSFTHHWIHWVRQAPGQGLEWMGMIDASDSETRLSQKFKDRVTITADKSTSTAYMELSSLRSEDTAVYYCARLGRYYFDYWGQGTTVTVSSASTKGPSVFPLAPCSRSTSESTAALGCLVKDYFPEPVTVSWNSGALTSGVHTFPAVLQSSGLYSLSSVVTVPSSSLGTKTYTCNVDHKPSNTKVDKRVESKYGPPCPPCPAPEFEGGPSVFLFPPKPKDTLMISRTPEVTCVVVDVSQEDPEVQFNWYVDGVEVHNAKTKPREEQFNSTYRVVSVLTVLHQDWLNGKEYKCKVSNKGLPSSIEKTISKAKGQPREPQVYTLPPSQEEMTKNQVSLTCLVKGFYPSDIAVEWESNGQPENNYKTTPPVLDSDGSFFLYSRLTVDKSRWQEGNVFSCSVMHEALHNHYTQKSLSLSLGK
light: B1 light
B11: PDL1b-E-HC (bispecific antibody)
heavy: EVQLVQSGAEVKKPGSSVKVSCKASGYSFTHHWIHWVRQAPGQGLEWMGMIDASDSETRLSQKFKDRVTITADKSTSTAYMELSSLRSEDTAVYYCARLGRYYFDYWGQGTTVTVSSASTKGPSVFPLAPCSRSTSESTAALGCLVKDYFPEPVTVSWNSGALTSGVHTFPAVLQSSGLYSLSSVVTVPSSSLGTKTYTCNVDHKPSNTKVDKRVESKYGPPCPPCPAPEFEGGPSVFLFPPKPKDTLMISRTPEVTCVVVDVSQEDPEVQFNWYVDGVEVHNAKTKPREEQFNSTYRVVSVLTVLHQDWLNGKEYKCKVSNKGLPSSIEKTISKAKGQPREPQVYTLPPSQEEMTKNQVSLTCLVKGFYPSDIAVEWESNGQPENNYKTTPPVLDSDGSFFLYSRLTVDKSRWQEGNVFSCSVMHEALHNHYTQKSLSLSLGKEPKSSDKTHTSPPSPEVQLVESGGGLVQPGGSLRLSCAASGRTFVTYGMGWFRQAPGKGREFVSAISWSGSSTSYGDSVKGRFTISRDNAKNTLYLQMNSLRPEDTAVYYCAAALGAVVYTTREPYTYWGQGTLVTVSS
light: B1 light
B12: PDL1a-E-HC (bispecific antibody)
heavy: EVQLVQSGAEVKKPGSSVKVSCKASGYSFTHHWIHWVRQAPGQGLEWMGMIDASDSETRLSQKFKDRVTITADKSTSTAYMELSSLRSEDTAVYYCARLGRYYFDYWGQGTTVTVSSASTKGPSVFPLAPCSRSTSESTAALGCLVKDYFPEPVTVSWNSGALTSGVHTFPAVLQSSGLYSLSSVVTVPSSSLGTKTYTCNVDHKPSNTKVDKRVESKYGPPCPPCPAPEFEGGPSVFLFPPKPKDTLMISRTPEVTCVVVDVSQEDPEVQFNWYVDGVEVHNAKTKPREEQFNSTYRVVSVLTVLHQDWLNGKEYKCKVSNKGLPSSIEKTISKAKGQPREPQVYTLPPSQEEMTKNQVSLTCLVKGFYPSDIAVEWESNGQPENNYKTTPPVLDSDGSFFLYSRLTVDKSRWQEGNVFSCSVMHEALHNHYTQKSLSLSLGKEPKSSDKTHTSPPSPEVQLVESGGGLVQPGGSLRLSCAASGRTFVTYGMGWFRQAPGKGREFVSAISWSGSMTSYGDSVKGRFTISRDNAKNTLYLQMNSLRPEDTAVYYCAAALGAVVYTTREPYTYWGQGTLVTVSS
light: B1 light
B13: PDL1c-E-HC (bispecific antibody)
heavy: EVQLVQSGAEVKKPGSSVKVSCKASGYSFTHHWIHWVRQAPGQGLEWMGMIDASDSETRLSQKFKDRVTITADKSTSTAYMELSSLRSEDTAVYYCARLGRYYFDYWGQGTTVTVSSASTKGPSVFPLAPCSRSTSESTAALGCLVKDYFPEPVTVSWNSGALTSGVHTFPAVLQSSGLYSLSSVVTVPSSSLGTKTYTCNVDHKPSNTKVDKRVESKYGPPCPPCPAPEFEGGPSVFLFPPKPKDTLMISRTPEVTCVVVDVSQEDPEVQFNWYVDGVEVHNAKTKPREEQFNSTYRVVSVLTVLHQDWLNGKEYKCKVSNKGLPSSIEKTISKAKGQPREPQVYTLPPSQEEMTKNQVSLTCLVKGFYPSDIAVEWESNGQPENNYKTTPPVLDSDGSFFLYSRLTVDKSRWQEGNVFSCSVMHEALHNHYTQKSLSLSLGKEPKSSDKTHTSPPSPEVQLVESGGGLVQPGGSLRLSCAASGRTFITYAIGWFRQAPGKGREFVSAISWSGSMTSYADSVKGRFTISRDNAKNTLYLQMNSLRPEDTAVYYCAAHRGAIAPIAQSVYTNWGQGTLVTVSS
light: B1 light

The binders below were run against PD-L1 expressed on CHO-K1 cells (UniProt Q9NZQ7 19-290) (assay: FACS binding, CHO-K1 cells expressing PD-L1).
Chain of PD-L1 expressed on CHO-K1 cells (Q9NZQ7 19-290): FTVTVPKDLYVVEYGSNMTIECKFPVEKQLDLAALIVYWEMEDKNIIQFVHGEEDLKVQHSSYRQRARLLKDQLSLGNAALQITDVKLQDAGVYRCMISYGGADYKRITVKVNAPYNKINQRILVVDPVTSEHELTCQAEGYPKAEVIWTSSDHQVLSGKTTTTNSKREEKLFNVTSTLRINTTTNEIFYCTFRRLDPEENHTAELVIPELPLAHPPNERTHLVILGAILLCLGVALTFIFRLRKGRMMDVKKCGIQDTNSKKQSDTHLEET
In the case of B1, the EC50 is reported as 759 pM.
Work on B2 yielded an EC50 of 1480 pM.
Binder B3 has an EC50 of 1110 pM.
B4 gave an EC50 of 718 pM.
With B5 the EC50 was 351 pM.
In the case of B6, the EC50 is reported as 1180 pM.

What follows are binders tested against CD47 expressed on CHO-K1 cells (UniProt Q08722 19-323) (assay: FACS).
B7 was tested, and the EC50 was 324 pM.
B1 was tested, and the EC50 was 854 pM.
B2 was tested, and the EC50 was 700 pM.
In the case of B8, the EC50 is reported as 664 pM.
In the case of B9, the EC50 is reported as 247 pM.
In the case of B10, the EC50 is reported as 521 pM.
B11 was tested, and the EC50 was 328 pM.
B12 showed an EC50 of 255 pM.
Work on B13 yielded an EC50 of 287 pM.
